Reference: article PMC6350781 (Cell reports, 2018)

T1: GST-Fkbp5 (UniProt Q64378 1-456)
T1 sequence (looked up): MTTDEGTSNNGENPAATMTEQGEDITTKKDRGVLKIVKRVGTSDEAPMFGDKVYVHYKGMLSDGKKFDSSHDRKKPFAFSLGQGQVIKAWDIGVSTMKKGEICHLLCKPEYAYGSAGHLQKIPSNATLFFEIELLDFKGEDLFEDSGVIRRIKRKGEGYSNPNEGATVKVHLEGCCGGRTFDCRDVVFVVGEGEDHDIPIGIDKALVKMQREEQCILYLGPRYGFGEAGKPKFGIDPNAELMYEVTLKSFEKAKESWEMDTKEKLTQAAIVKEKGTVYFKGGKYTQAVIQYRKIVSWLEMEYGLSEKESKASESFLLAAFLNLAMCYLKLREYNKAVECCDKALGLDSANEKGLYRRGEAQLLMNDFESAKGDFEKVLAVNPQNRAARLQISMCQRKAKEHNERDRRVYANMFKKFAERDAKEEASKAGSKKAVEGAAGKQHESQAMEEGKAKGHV

T2: GST-Fkbp5-F130Y (UniProt Q64378 1-456, F130Y)
T2 sequence (looked up): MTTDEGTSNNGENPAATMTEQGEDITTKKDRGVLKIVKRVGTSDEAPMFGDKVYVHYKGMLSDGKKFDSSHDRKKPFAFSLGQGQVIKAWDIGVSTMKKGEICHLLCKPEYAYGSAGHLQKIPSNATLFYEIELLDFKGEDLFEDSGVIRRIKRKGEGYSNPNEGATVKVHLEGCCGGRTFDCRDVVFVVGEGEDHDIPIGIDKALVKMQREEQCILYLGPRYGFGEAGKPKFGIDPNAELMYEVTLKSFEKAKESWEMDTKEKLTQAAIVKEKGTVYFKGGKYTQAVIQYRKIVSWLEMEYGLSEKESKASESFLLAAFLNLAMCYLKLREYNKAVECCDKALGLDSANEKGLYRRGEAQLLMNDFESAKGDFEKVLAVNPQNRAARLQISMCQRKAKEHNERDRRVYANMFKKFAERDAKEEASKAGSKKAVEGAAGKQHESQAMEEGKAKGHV

T3: GST-Fkbp5-Δ1 (UniProt Q64378 1-456, deletion of amino acids 50-138)
T3 sequence (looked up): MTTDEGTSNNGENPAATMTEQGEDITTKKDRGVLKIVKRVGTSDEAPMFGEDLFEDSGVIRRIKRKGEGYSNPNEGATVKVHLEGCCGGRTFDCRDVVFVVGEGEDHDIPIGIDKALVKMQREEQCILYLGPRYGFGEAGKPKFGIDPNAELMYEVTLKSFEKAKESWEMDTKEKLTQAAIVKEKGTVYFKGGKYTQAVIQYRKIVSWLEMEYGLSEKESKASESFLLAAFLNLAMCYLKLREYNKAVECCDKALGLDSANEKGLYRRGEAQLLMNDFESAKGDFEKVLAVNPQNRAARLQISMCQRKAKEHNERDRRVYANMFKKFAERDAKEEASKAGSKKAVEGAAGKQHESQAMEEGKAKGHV

T4: GST-Fkbp5-Δ2 (UniProt Q64378 1-456, deletion of amino acids 165-251)
T4 sequence (looked up): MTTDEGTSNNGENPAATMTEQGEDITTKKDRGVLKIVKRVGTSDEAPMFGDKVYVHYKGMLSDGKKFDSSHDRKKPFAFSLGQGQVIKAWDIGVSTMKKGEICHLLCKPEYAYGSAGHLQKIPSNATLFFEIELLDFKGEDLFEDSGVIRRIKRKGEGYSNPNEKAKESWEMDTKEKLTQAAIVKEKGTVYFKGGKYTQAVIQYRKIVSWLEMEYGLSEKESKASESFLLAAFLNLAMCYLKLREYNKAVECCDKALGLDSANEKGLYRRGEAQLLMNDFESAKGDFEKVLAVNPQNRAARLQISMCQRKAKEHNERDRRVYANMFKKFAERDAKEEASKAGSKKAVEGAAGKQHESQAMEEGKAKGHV

T5: GST-Fkbp5-W90L (UniProt Q64378 1-456, W90L)
T5 sequence (looked up): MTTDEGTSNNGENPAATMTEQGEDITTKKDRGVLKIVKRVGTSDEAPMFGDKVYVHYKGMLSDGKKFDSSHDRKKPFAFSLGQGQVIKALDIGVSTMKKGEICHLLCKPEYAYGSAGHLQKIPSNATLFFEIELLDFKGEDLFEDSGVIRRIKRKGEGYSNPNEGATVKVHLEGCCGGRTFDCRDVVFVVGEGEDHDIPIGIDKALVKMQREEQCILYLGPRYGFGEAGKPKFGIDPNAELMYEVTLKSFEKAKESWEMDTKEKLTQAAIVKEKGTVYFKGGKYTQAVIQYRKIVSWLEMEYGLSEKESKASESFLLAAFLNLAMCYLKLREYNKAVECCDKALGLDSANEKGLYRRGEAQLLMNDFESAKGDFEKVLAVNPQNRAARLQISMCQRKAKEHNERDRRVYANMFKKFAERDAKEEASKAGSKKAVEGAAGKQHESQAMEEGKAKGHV


Columns and labels:
Assay in all cases: pull-down
GST-Fkbp5 = biological target: T1, GST-Fkbp5
GST-Fkbp5-F130Y = biological target: T2, GST-Fkbp5-F130Y
GST-Fkbp5-Δ1 = biological target: T3, GST-Fkbp5-Δ1
GST-Fkbp5-Δ2 = biological target: T4, GST-Fkbp5-Δ2
GST-Fkbp5-W90L = biological target: T5, GST-Fkbp5-W90L

Binder | binding result (GST-Fkbp5) | binding result (GST-Fkbp5-F130Y) | binding result (GST-Fkbp5-Δ1) | binding result (GST-Fkbp5-Δ2) | binding result (GST-Fkbp5-W90L)
Cdk4-Δ3-6×His (domain or fragment, UniProt P30285 1-200, looked up) MAATRYEPVAEIGVGAYGTVYKARDPHSGHFVALKSVRVPNGGAAGGGLPVSTVREVALLRRLEAFEHPNVVRLMDVCATSRTDRDIKVTLVFEHIDQDLRTYLDKAPPPGLPVETIKDLMRQFLSGLDFLHANCIVHRDLKPENILVTSNGTVKLADFGLARIYSYQMALTPVVVTLWYRAPEVLLQSTYATPVDMWSV | binds |  |  |  | 
Cdk4-Δ2-6×His (natural protein, UniProt P30285 1-303, looked up) MAATRYEPVAEIGVGAYGTVYKARDPHSGHFVALKSVRVPNGGAAGGGLPVSTVREVALLRRLEAFEHPNVVRLMDVCATSRTDRDIKVTLVFEHIDQDLGCIFAEMFRRKPLFCGNSEADQLGKIFDLIGLPPEDDWPREVSLPRGAFAPRGPRPVQSVVPEMEESGAQLLLEMLTFNPHKRISAFRALQHSYLHKEESDAE | binds |  |  |  | 

Second part, the binder after the results:

binding result (GST-Fkbp5) | binding result (GST-Fkbp5-F130Y) | binding result (GST-Fkbp5-Δ1) | binding result (GST-Fkbp5-Δ2) | binding result (GST-Fkbp5-W90L) | Binder
binds |  |  |  |  | Cdk4-Δ1-6×His (domain or fragment, UniProt P30285 101-303, looked up) RTYLDKAPPPGLPVETIKDLMRQFLSGLDFLHANCIVHRDLKPENILVTSNGTVKLADFGLARIYSYQMALTPVVVTLWYRAPEVLLQSTYATPVDMWSVGCIFAEMFRRKPLFCGNSEADQLGKIFDLIGLPPEDDWPREVSLPRGAFAPRGPRPVQSVVPEMEESGAQLLLEMLTFNPHKRISAFRALQHSYLHKEESDAE
binds | binds | binds | binds | binds | Cdk4-6×His (natural protein, UniProt P30285 1-303, looked up) MAATRYEPVAEIGVGAYGTVYKARDPHSGHFVALKSVRVPNGGAAGGGLPVSTVREVALLRRLEAFEHPNVVRLMDVCATSRTDRDIKVTLVFEHIDQDLRTYLDKAPPPGLPVETIKDLMRQFLSGLDFLHANCIVHRDLKPENILVTSNGTVKLADFGLARIYSYQMALTPVVVTLWYRAPEVLLQSTYATPVDMWSVGCIFAEMFRRKPLFCGNSEADQLGKIFDLIGLPPEDDWPREVSLPRGAFAPRGPRPVQSVVPEMEESGAQLLLEMLTFNPHKRISAFRALQHSYLHKEESDAE
